assay: yeast display, Sf9 membrane polyspecificity reagent, FACS + sequencing; frameworks hold sequencing errors
Summary of the method: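 A nanobody's polyreactivity label depends on the gate it was sorted from. Yeast display cells were stained with 10% biotinylated, detergent-solubilized Sf9 membrane reagent for 1 hour at 4 °C, enriched on streptavidin microbeads and sorted by FACS. The low and high (top ~1%) gates were set on anti-HA fluorescence for expression and streptavidin fluorescence for reagent binding.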

Sequence	polyreactivity (PSR sort gate)
QVQLVESGGGLVQAGGSLRLSCAASGSIFASYAMGWYRQAPGKERELVAAISARGGSTYYADSVKGRFTISRDNAKNTVYLQMNSLKPEDTAVYYCAARHQQGRRISDYGYWGQGTQVTVSS	high polyreactivity
QVQLVESGGGLVQAGGSLRLSCAASGSIFASYVMGWYRQAPGKERELVASITLSGGSTYYADSVKGRFTISRDNAKNTVYLQMNSLKPEDTAVYYCAKRGTLWLQEDYYWGQGTQVTVSS	low polyreactivity
QVQLVESGGGLVQAGGSLRLSCAASGSIFATHAMGWYRQAPGQDRELVAAISWRTGSTVYADSVKGRFTISRDNAKNTDYLQMNSLKPEDTAVYYCAATRRGDNYRYDYWGQGTQVTVSS	high polyreactivity
QVQLVESGGGLVQAGGSLRLSCAASGSIFAVNTMGWYRQAPGKERELVAAISQRGSSTYYADSVKGRFTISRDNAKNTVYLQMNSLKPEDTAVYYCAKRFIYGRYNYWGQGTQVTVSS	high polyreactivity
QVQLVESGGGLVQAGGSLRLSCAASGSIFAVYAMGWYRQAPGKERELVASISRRGGSTYYADSVKGRFTISRDNAKNTVYLQMNSLKPEDTAVYYCAATGRRGYGYGYWGQGTQVTVSS	high polyreactivity
QVQLVESGGGLVQAGGSLRLSCAASGSIFAVYAMVWYRQAPGKERELVAAISWSVGSTYYADSVKGRFTISRDNAKNTVYLQMNRLKPEDTAVYYCAADLAYYLDYVEYFTEIELEGYWGQGTQVTVSS	low polyreactivity
QVQLVESGGGLVQAGGSLRLSCAASGSIFAWYAMGWYRQAPGKERELVATITWSGGSTYYADSVKGRFTISRDNAKNTVYLQMNSLKPEDTAVYYCAAEVVGICYDLWYQGDYWGQGTQVTVSS	low polyreactivity
QVQLVESGGGLVQAGGSLRLSCAASGSIFAWYAMGWYRQAPGKERELVAVITRGGSTNYADSVKGRFTISRDNAKNTVYLQMNSLKPEDTAVYYCAAGSYYSWYPFDYWGQGTQVTVSS	low polyreactivity
QVQLVESGGGLVQAGGSLRLSCAASGSIFAWYGMGRYRQAPGIERELVAAITTAGSTNYADSVKGRFTISRDNAKNTVYLHMNSLKPEDTAVYYCATATPYVSLKDAHDYGGQGTQVTVSS	low polyreactivity
QVQLVESGGGLVQAGGSLRLSCAASGSIFAWYGMGWYRPAPGKERELVAAISTAGSTNYADSVKGRFTISRDNAKNTVYLQMNSLKPEDTAVYYCAKKSSWYYPERFDYWGQGTQVTVSS	low polyreactivity
QVQLVESGGGLVQAGGSLRLSCAASGSIFAWYGMGWYRQAPGKERELVAAITSTGSTYYADSVKGRFTISRDNAKNTVYLQMNSLKPEDTAVYDCNAYSVYLWRPGDYWGLGTQVTVSS	low polyreactivity
QVQLVESGGGLVQAGGSLRLSCAASGSIFAWYGMGWYRQAPGKERELVAAITSTGSTYYADSVKGRFTISRDNAKNTVYLQMNSLKPEDTAVYYCNDYSVYLWRPGDYWGQGTQVTVSS	low polyreactivity
QVQLVESGGGLVQAGGSLRLSCAASGSIFAYAMGWYRQAPGKERELVAGISSSGGRTYYADSVKGRFTISRDNAKNTVYLQMNRLKPEDTAVYYCAAKRWGLYKGYNCGQGTQVTVSS	high polyreactivity
QVQLVESGGGLVQAGGSLRLSCAASGSIFAYNAMGWYIQAPGKERELVATITVRGGSTYYADSVKGRFTISRDNAKNTFYLQMNSLKPEDTAVYFCAVRTYRYYRYNYWGQGTQVTVSS	high polyreactivity
QVQLVESGGGLVQAGGSLRLSCAASGSIFAYNAMGWYRQAPGKERELVAAISVSDGITYYADSVKGRFTISRDNAKNTVYLQMNSLKPEDTAVYYCAARTRGPYRAYDYWGQGTQVTVSS	low polyreactivity
QVQLVESGGGLVQAGGSLRLSCAASGSIFAYYAMGGYRQAPGKEREFVAAISKRGGRTYYADSVKGRFTISRDNAKNTVYLQMNSLKPEDTAVYYCAAPWAYPRSGGDYWGQGTQVTVSS	high polyreactivity
QVQLVESGGGLVQAGGSLRLSCAASGSIFAYYAMGWYRQAPGKERELVAAISGTGGSTNYADSVKGRFTISRDNAKNTVYLQMNSLKPEDTAVYYCAKDYSFQWRNEFNLAGEYDYWGQGTQVTVSS	low polyreactivity
QVQLVESGGGLVQAGGSLRLSCAASGSIFAYYAMGWYRQAPGKERELVAAISYSGDGTYYADSVKGRFTISRDNAKNTVYFQMNSLKPEDTAVYYCAADWDGYFYKSNWDYNYWGQGTQVTVSS	low polyreactivity
QVQLVESGGGLVQAGGSLRLSCAASGSIFAYYAMGWYRQAPGKERELVAGIRISGGRTYYADSVKGRFTISRDNAKNTVYLQMNSLKPEDTAVYYCNARWRGFRTGAGDYWGQGTQVTVSS	high polyreactivity
QVQLVESGGGLVQAGGSLRLSCAASGSIFAYYAMGWYRQAPGKERELVAVIRSGGSTYYADSVKGRFTISRDNEKNTVYLQMNSLNPEDTAVYYCAAPSYRPSRGDYWGQGTQVTVSS	high polyreactivity
QVQLVESGGGLVQAGGSLRLSCAASGSIFAYYAMGWYRQAPGKERELVAVISRGGSTYYADSVKGRFTISRDNATNTVYLQMNSLKPEDTAVYYCAADDTRGREEYDYWGQGTQVTVSS	high polyreactivity
QVQLVESGGGLVQAGGSLRLSCAASGSIFCDNAMGWYRQEPGKERELVAAISIVGSTSYADSVKGRFTISRDNANNTVYLQMNSLKPEDTAVYYCAAENVRSDTGFDYWGQGTQVTVSS	low polyreactivity

Sequence	polyreactivity (PSR sort gate)
QVQLVESGGGLVQAGGSLRLSCAASGSIFCSYAMGWYRPAPGKERELVAAITQRGGRTYYADSVKGRFTISRENAKNTVYLQMNSLKPEDTAVYYCAAKNRISRPSPYDYWGQGTQVTVSS	high polyreactivity
QVQLVESGGGLVQAGGSLRLSCAASGSIFDAYAMGWYRQAPGKERELVAAITTGGGSTYYADSVKGRFTISRDTAKNTVYLQMNSLKPEDTAVYYCARDYGKYKGYYWGQGTQVTVSS	low polyreactivity
QVQLVESGGGLVQAGGSLRLSCAASGSIFDAYVMGWYRQAPGKERELVAAISRSGGSTYYADSVKGRFTISRDNAKNTVYLQMNSLKPEDTAVYYCAAEKIRSSPYRYDYWGQGTQVTVSS	low polyreactivity
QVQLVESGGGLVQAGGSLRLSCAASGSIFDFYAMGWYRQAPGKERELVAAINRGGSTYYADSVKGRFTISRDNAKNTVYLQMNSLKPEDTAVYYCAASYFYWRANRGPRYYWGQGTQVTVSS	high polyreactivity
QVQLVESGGGLVQAGGSLRLSCAASGSIFDGNAMGWYRQAPGKERELVAAISGGGRTYYADSVKGRFTISRDNAKNTVYLQMNSLKPEDTAVYYCAAAYTFYVYGSYKVTLDYWGQGTQVTVSS	low polyreactivity
QVQLVESGGGLVQAGGSLRLSCAASGSIFDHTNAMGSYRQAPGKERELVAAITSGSSTNYADSVKGRFTISRDNAKKTVDLQMNSLKPEDTAVYYCNADRFHSGIFDYWGQGTQVTVSS	low polyreactivity
QVQLVESGGGLVQAGGSLRLSCAASGSIFDINAMGWYRQAPGKERELVAAISTTSGRTYYADSVKGRFTISRDNAKNTVFLQMNSLKPEDTAVYYCNVSKYVSSYRRGLFNYWGQGTQVTVSS	low polyreactivity
QVQLVESGGGLVQAGGSLRLSCAASGSIFDINAMGWYRQAPGKERELVAVITDSGSTYYADSVKGRFTISRDNAKNTVYLQMNSLKPEDTAVYYCAAESSLLFFLMDYWGQATQVTVSS	low polyreactivity
QVQLVESGGGLVQAGGSLRLSCAASGSIFDINAMGWYRQAPGKERELVAVITDSGSTYYADSVKGRFTISRDNAKNTVYLQMNSLKPEDTAVYYCAAESSLLFFLMDYWGQGTQVTVSS	low polyreactivity
QVQLVESGGGLVQAGGSLRLSCAASGSIFDIYAMGWYRQAPGKERELVAAISWNGGDTTYADSVKGRFTISRDNAKNTVYLQMNSLKPEDTAVYYCAADLGYWVADYYWGQGTQVTVSS	high polyreactivity
QVQLVESGGGLVQAGGSLRLSCAASGSIFDIYAMGWYRQAPGKETELVAAISWNGGDTTYADSVKGRFTISRDNAKNTVYLQMNSLKPEDTAVYYCAADLGYWVADYYWGQGTQVTVSS	high polyreactivity
QVQLVESGGGLVQAGGSLRLSCAASGSIFDLNAMGWYRQAPGKERELVAAISKSGGSTYYADSVKGRFTISRDNAKNTVYLQMNSLKPEDTAVYYCATSGDRLVWGQGTQVTVSW	low polyreactivity
QVQLVESGGGLVQAGGSLRLSCAASGSIFDLNAMGWYRQAPGKERELVAAISSGGGTYYADSVKGRFTISRDNAKNTVYLQMNSLKPEDTAVYYCNRVTRWTYNYWGQGTQVTVSS	high polyreactivity
QVQLVESGGGLVQAGGSLRLSCAASGSIFDLYAMGWYRQAPGKERELVAGISYSGGSTYYADSVKGRFTISRDNAKNTVYLQMNSLKPEDTAVYYCAVDLGYRLGRFDYWGQGTQVTVSS	low polyreactivity
QVQLVESGGGLVQAGGSLRLSCAASGSIFDNYAMGWYRPAPGKERELVAVISSGGVSTSYADSVKGRFTISRDNAKNTVYLQMNSLKTEDTAVYYCAADGYYIGPYDYWGQGTQVNVSS	low polyreactivity
QVQLVESGGGLVQAGGSLRLSCAASGSIFDPYAMGWYRQAPGKEREFVAALSWSGGSTYYADSVKGRFTISRDNAKNTVYLQMNSLKPEDTAVYYCATDWGDPYGYDYWGQGTQVTVSS	low polyreactivity
QVQLVESGGGLVQAGGSLRLSCAASGSIFDPYAMGWYRQAPGKERELVAAISFSGGSTSYADSVKGRFTISRDNAKNTVYLQMNSLTPEATAVYYCAKRARFYSETDLKPYGFDYWGHGTQVTVSS	low polyreactivity
QVQLVESGGGLVQAGGSLRLSCAASGSIFDPYAMGWYRQAPGKERELVARISRSGGSTNYADSVKGRFTISRDNAKNTVYLQMNSLKPEDTAVYYCNTPSSREMDYWGQGTQVTVSS	low polyreactivity
QVQLVESGGGLVQAGGSLRLSCAASGSIFDQNAMGWYRQAPGKERELVAAITFSGVDTYYADSAKGRFTISRDNAKNTVYLQMNSLKPEDTAVYYCNADRGYNLVRRSQAVVEMDYWGQGTQVTVSS	low polyreactivity
QVQLVESGGGLVQAGGSLRLSCAASGSIFDRNAMGWYRQAPGIERELVAAITSRGGSTYYADSVKGRFTISRDNAKNTVYLQMNSLKPEDTAVYYCAARYSSRGTYPRRYDYWGQGTQVTVSS	high polyreactivity
QVQLVESGGGLVQAGGSLRLSCAASGSIFDRNAMGWYRQAPGKERELVAAITSGGSTYYADSVKGRFTISRDNAKNTVYLQMNSLKPEDTAVYYCNADTDPPVPLYYWGQGTQVTVSS	low polyreactivity
